This note sets out measurements from article PMC4460036.

The target in the assay is Fibrillar-type I Horm collagen from equine tendon (equine). Nature of the assay: not stated; apparent constants (KDapp) of recombinant soluble GPVI for collagen; method and conditions not told.

As to “GPVI-His (extracellular domain of human GPVI fused to a poly-His tag) (from UniProt Q9HCN6 21-267) (domain or fragment)”, the Kd was 270 nM. In the case of “GPVI-Fc (extracellular domain of human GPVI fused to the Fc domain of human Igs) (from UniProt Q9HCN6 21-267) (Fc fusion)”, the Kd is 5 nM.
